How the values were obtained:
[1] = molecular target: T1, S protein of PEDV-CV777 (G1 PEDV) (Porcine epidemic diarrhea virus, CV777 …, UniProt H2DFZ6); assay: immunostaining of cells or tissue; ICC (HRP/DAB) and IFA (FITC) on PEDV-infected Vero cells fixed with 80% acetone; scFv 5 ug/mL in PBS for 1 h, detected by anti-V5 antibody; PBS blank as background control; settings: one partner purified
T1 construct: spike (S) protein of porcine epidemic diarrhea virus strain CV777; stood on infected cells and on purified virions; The antigen in the assays was the infected cell or the whole virion; also called G1 PEDV S protein; historic vaccine strain; source: PEDV-CV777 in infected Vero cells (acetone-fixed); purified PEDV-CV777 virions
T1 sequence (Q91AV1 26-1383): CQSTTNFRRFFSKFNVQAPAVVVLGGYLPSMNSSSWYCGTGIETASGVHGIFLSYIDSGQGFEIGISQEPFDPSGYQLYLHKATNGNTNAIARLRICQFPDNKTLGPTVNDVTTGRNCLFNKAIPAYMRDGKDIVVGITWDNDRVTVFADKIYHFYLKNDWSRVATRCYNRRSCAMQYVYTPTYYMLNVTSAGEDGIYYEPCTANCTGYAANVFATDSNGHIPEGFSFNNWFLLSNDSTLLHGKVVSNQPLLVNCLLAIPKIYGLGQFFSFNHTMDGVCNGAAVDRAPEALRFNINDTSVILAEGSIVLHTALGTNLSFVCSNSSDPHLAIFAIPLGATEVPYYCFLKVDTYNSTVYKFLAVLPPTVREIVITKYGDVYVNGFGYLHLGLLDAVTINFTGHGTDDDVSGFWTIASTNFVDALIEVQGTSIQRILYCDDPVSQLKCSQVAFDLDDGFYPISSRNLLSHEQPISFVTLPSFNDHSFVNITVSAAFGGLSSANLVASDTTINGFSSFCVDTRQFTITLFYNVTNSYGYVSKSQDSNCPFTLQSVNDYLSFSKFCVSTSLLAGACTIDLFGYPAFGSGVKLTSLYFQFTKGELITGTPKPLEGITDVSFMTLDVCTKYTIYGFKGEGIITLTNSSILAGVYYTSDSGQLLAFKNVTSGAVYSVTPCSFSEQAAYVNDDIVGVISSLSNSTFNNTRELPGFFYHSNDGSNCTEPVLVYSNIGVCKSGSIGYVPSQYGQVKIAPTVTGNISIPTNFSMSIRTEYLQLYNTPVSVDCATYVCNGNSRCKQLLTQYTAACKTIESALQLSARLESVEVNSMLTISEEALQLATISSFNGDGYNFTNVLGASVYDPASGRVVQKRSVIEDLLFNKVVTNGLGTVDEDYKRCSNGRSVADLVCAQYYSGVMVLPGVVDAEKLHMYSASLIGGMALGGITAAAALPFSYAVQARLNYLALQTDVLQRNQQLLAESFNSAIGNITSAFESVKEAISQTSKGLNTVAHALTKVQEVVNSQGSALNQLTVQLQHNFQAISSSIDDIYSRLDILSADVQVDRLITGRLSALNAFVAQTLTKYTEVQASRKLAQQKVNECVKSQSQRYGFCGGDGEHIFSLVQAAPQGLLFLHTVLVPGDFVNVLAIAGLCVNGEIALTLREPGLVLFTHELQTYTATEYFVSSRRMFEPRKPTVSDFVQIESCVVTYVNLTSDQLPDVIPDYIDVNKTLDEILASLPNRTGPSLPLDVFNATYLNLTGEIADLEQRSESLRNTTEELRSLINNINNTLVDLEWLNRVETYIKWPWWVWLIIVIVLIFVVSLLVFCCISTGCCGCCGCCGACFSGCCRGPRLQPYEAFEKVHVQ

[2] = molecular target: T2, ectodomain of the S protein of PEDV (GeneBank no. HC070225-S) (Porcine epidemic diarrhea virus, …, UniProt A0A1Y0DDF5); assay: retention on a 100 kDa MWCO spin column (called immunoprecipitation pull-down assay); 25 pmol S protein with 125 pmol scFv, 37 C for 3 h; 100 kDa MWCO filtration, 10 washes with dPBS; SDS-PAGE with Coomassie; control of scFv alone; settings: both partners purified
T2 construct: spike (S) glycoprotein of porcine epidemic diarrhea virus, ectodomain; also called PEDV S protein; purified trimeric PEDV S glycoprotein; source: Expi293F cells, secreted, purified from the culture medium

B1: recombinant scFv of the PEDV S1^A-specific neutralizing monoclonal antibody E10E-1-10 (scFv, V domains shown)
VH: QVQLQQSGAELARPGTSVKMSCKASGYTFTNYMMHWIKQRPGQGLEWIGYINPSTGYTNYNQKFKDKATLTADKSSSTAYVQLNILTSEDSAVYYCATSTLITGDYWGQGTTLTVSS
VL: NIVLTQSPKSMSMSVGERVTLSCKASENVGTYVSWYQQKPKQSPKLLIYGTFNRYTGVPDRFTGSGSATDFTLTISSVQAEDLADYHCGQSYNYPFTFGSGTKLEIK
notes: (G4S)3 linker; About 30 kDa; The order VL, linker, VH follows the order in which the methods name the regions; also called E10E-1-10 scFv; anti-PEDV S1^A scFv; source: Expi293F cells, transfected, secreted; purified from the supernatant (IMAC on cobalt resin, SEC on Superdex 75 Increase)
B1: binds [1]; binds [2].
